Reference: the nanobody polyreactivity screen of Harvey et al. (2022)

test: yeast display, Sf9 membrane polyspecificity reagent, FACS + sequencing; frameworks hold sequencing errors
Summary of the method: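 A synthetic nanobody library was expressed on Saccharomyces cerevisiae BJ5465 by galactose induction for 36–48 hours. The library was stained for 1 hour at 4 °C with 10% biotinylated, detergent-solubilized Sf9 membrane reagent and enriched with streptavidin microbeads before FACS. Low and high (top ~1%) gates were set on anti-HA fluorescence for expression and streptavidin fluorescence for reagent binding, and each polyreactivity label reflects the gate of origin.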

Sequence | polyreactivity (PSR sort gate)
QVQLEESGGGLVQAGGSLRLSCAASGSIFPFYAMGRYRQAPGKERELVAAISDRGGSTYYADSVKGRFTISRDNAKNTVYLQMNSLKPEDTAVYYCAKGGGVSQGYTDEYDYWGQGTQVTVSS | low polyreactivity
QVQLEESGGGLVQAGGSLRLSCAASGSIFSGYTMGWYRQAPGKERELVAGISYRGGSTYYADSVKGRFTISRDNAKNTVYLQMNSLKPEDTAVYYCAARVWWRYEYWGQGTQVTVSS | high polyreactivity
QVQLEESGGGLVQAGGSLRLSCAASGSIFSYNAMGWYRQAPGKERELVAAISRGSGSTYYADSVKGRFTISRDNAKNTVYLQMNSLKPEDTAVYYCATRSIRVLPDVYRKADDYWGQGTQVTVSS | low polyreactivity
QVQLEESGGGLVQAGGSLRLSCAASGSIFVGNVMGWYRQAPGKERELVAAITYSGGSTYYADSVKGRFTISRDNAKNTVYLQMNSLKPEDTAVYYCAKPSRVSIGYDYWGQGTQVTVSS | low polyreactivity
QVQLEESGGGLVQAGGSLRLSCAASGSIFVYYGMGWYRQAPGKERELVAAISSGGSTHYADSVKGRFTISRDNAKNTVYLQMNSLKPEDTAVYYCNARAYGNGLGTGYFGKHRYDYWGQGTQVTVSS | low polyreactivity
QVQLEESGGGLVQAGGSLRLSCAASGSIFWGYAIGWYRQAPGKERELVAAISNTGSTNYADSVKGRFTISRDNAKNTVYLQMNSLKPEDTAVYYCNASYTYGEMDYWGQGTQVTVSS | low polyreactivity
QVQLEESGGGLVQAGGSLRLSCAASGSIFYLNDMGWYRQAPGKEREFVAAIDSRGTSTYYADSVKGRFTISRDNAKNTVYLQMNSLKPEDTAVYYCAADSYALEYDYWGQGTQVTVSS | low polyreactivity
QVQLEESGGGLVQAGGSLRLSCAASGSIFYSYAMGWYRQAPGNERELVAAITRGGSTYYADSVKGRFTISRDNAKNTVYLQMNSLKPEDTAVYYCAADSQYGWPEYEYDYWGQGTQVTVSS | low polyreactivity
QVQLEESGGGLVQAGGSLRLSCAASGSILPDYVMGWYRQAPGKERELVAAISWSDGSTYYADSVKGRFTISRDNAKNTVYLQRNSLKPEDTAVYYCAAEVWDYYYGCYADDYWGQGTQVTVSS | low polyreactivity
QVQLEESGGGLVQAGGSLRLSCAASGSILRRYAMGWYRQAPGKEREFVAAMSYSGSRTYYADSVKGRFTISRDNAKYTVYLQMYSLKPEDTAVYYCAADSYGSRYEYWGLGTQVTVSS | high polyreactivity
QVQLEESGGGLVQAGGSLRLSCAASGSILTDNAMGWYRQAPGKERELVAANSYSGASTYYADSVKGRFTISRDNAKNTVYLQMNSLKPEDTAVFYCAARYVSATPQLKARVRYYYWGQGTQVTVSS | high polyreactivity
QVQLEESGGGLVQAGGSLRLSCAASGSILVIYTMGWYRQAPGKERELVAGINYSGGRTYYADSVKGRFTISRDNAKNTVYLQMNSLKPEDTAVYYCSADYYFLDWYDYWGQGTQVTVSS | low polyreactivity
QVQLEESGGGLVQAGGSLRLSCAASGSILVKYAMGRYRQAPGKERELVASITSTGNTYYADSVKGRFTISRDNAKNTVYLQMNSLKPEDTAVYYCAADAAFTYVYFQSDGYNYWGQGTQVTVSS | low polyreactivity
QVQLEESGGGLVQAGGSLRLSCAASGSILVRYAMGWYRQAPGKERELVAAITYSVGSTYYADSVKGRFTISRDNAKNTVYLQMNSLKPEDTAVYYCAASGGTEVLLMDYWGQGTQVTVSS | low polyreactivity
QVQLEESGGGLVQAGGSLRLSCAASGSISSFNTMGWYRQAPGKERELVAAITRDGSTYYADSVKGRFTISRDNAKNTVYLQMNSLKPEDTAVYYCAARGWYATWLYYYWGQGTQVTVSS | high polyreactivity
QVQLEESGGGLVQAGGSLRLSCAASGSTFDVYAMGWYRQAPGKERELVAAIRSSGGSTFYADSVKGRFTISRDNAKNIVYLQMNSLKPEDTAVYYCAARSFVVSGYNKYYEYGYWGQGTQVTVSS | low polyreactivity
QVQLEESGGGLVQAGGSLRLSCAASGSTFFIYAMGWYRQAPGKERELVAVIRNIDVRTYYADSVKGRFTISRDNAKNTVYLQMNSLKPEDTAVYYCAADELLDESVDMYYWGQGTQVTVSS | low polyreactivity
QVQLEESGGGLVQAGGSLRLSCAASGSTFGKNAMGWYRQAPGKERELVASITWRGGSTYYADSVKGRFTISRDNAKNTVYLQMNSLKPEDTAVYYCAADYVVSAFDYWGQGTQVTVSS | low polyreactivity
QVQLEESGGGLVQAGGSLRLSCAASGSTFKTYASGWYRQAPGKERELVAAISWSGGSTYYAESVKGRFTISRDNAKNTVYLQMNSLKPEDTAVYYCNAGWGYPSPWFIGEYWGQGTQVTVSS | low polyreactivity
QVQLEESGGGLVQAGGSLRLSCAASGSTFRDYAMGWYRQAPGKQRELVAAITSGGSTNYADSVKGRFTISRDNAKNTVYLQMNSLKPEDTAVYYCNARYAGWYTPWGRQSVYSDDYWGQGTQVTVSS | low polyreactivity
QVQLEESGGGLVQAGGSLRLSCAASGSTFSYYAKGWYRQAPGKERELVAVISRGGSTNYADSVKGRFTISRDNAKNTVYLQMNSLKPEDTAVYYCAADAIPDSVRYWEYDYWGQGTQVTVSS | low polyreactivity
QVQLEESGGGLVQAGGSLRLSCAASGSTFTPNAMGWYRQAPGKEREFVAGIDWNDGSTYYADSVKGRFTISRDNAKNTVYLQMNSLQPEDTEVYYCNAQWVSWWSLYDYWGQGTQVTVSS | high polyreactivity

Sequence | polyreactivity (PSR sort gate)
QVQLEESGGGLVQAGGSLRLSCAASGSTFTRYAMGWYRQAPGKERELVAAISRGGSTNYADSVKGRFTISRDNAKNTVYLQMNSLKPEDTAVYYCAARSWYLRYDYWGQGTQVTVSS | high polyreactivity
QVQLEESGGGLVQAGGSLRLSCAASGSTFVYNAMGWYRQAPGKEMELVAAISRRGGSTYYADSVKGRFTISRDNAKNTVYLQMNSLKPEDTAVYYCAADPSYYTYFSFDLSESDYWGQGTQVTVSS | low polyreactivity
QVQLEESGGGLVQAGGSLRLSCAASGSTFYINAMGWYRQAPGKERELVAAITWRGGRTYYADSVKGRFTISRDNAKNTVYLQLNSLKPEDTAVYYCAAKVRWHRGTSSYYYWGQGTQVTVSS | high polyreactivity
QVQLEESGGGLVQAGGSLRLSCAASGSTYWLYPMGGYRQATGKERELVATISERGGSTYYADSVKGRFTISRDNAKNTVYLQMNSLKPEDTAVYYCAAHVYGSWPDYDYWGQGTQVSVSS | low polyreactivity
QVQLEESGGGLVQAGGSLRLSCAASGYTFESYPMGWYRQAPGKEREFVAVISSSDTSTSYADSVKGRFTISRDNAKNTVYLQMNSLNPEDTAVYYCAAYSSPYYITYYWYNYDYWGQGTQVTVSS | low polyreactivity
QVQLEESGGGLVQAGGSLRLSCAASGYTFRGNARGWYRQAPGKERELVASISYSGGTTYADSVKGRFTISRDNAKNTVYLHRNSLKQEDTAVYYCNAAGFYYLYSHRQYEFWGQGTQLTVSS | low polyreactivity
QVQLEESGGGLVQAGGSLRLSCAASGYTSLYYGMGWYRQAPGKERELVASISRGGSTYADSVKGRFTISRDNAKNTVYLLMNRLKPEDTAVYYCNADGGWDDPWSGWVEYDYWGQGTQVTGSS | low polyreactivity
QVQLEESGGGLVQAGGSLRLSCAASVFTFSRYAMGWYRQAHGKVREIVAAISYRGGSTYADSVKGRFTISRDNAKNTVYLQMNSLKPEDTAVYYCAALRWGTDVWRRRIGSLLMGYSGQGTQVTVSS | high polyreactivity
QVQLEESGGGLVQAGGSLRLSCAATGILRLNAIGWYRHAPGKEREFVATISRSGGITYYADSVKGRFTISRDNAKNTVYLQMNSLKPEDTAVYYCAKGGYSLYGYWGQGTQVTVSS | high polyreactivity
QVQLEESGGGLVQAGGSLRLSCAAYGGIFGYYPMGWYRQATGKERELVAAINYSGGSTYYADSVKGRFTISRDNSKNTVYLQMNSLKPEVTAVYYCAKRSYGGTLHYAFDSWGQGTQVTVSS | low polyreactivity
QVQLEESGGGLVQAGGSLRLSCAAYGSTFSYNAMGGSRPAPGTQRELVAAITSSGSSTYYADSVKGRFTISRYNAKNTVYFQMNSLKPEDTAVYYCNAEVLFVAGQVQRNSGDYWGQGTQVTVSS | low polyreactivity
QVQLEESGGGLVQAGGSLRLSCAAYYAMGWYRQAPGKERELVAAISSTGRTNYADSVKGRFTISRDNAKNTVYLQMNSLKPEDTAVYYCNAGDRSGMEYWGQGTQVTVSS | low polyreactivity
QVQLEESGGGLVQAGGSLRLSCADSGSTLYWNAMGWYRQAPGKERELVAVISESGGTTYYADSVKGRFTISRDNAKNTVYLQMNSLKPEDTAVYYCAAVWYYQFGVWGYYWGQGTQVTVSS | low polyreactivity
QVQLEESGGGLVQAGGSLRLSCPPSGSTYYVYAMGWYRPAPGKERELVAAIDGGDTYYADSVKGGFTISRDNAMNTVFLQMNSLKPEDTAVYYCAAESLPEISVGLGFWGQGTQVTVSS | low polyreactivity
QVQLEESGGGLVQAGGSLRLSFAASGYTFDPYDMGWYRQAPGKERELVASISWSGGDTYYADSVKGRFTISRDNAKNTVYLQMNSLKPEDTAVYYCAADRYIPRSIIMDYWGQGNQVTVSS | low polyreactivity
QVQLEESGGGLVQAGGSLRLSSAASGGTFRPYAMGWYRQAPGKERELVATIRSSGGRTYYADSVKGRFTISRDNAKNTVYLQMTSLKPEDTAVYYCAKRAQTYYGYDYWGQGTQVTVSS | high polyreactivity
QVQLEESGGGLVQAGGSLRLSWAASGITFAYYAMGWYRQAPGKERELVAAINYNGGRTYYADSVKGRFTISRDNAKNTVYLQMNSLKPEDTAVYYCAARGYRHFYYWGQGTQVTVSS | high polyreactivity
QVQLEESGGGLVQAGGSLRLTCAASGRIFFQNTIGWYRQAPGQERELVAAITSDGSTYYADSVKGRFTISRDNAKNTVYLQMNSLKPEDTAVYYCAAEISYRWWYKLGFTSFDYWGQGTQVTVSS | low polyreactivity
QVQLEESGGGLVQAGGSLRLTCAASGRTFDFYAMGWYRQAPGKEREFVAAITFSTGSTTYADSVKGRFTISRDNAKNTVYLQMNSLKPEDTAVYYCNADAFNKISYVWYDYWGQGTQVTVSS | low polyreactivity
QVQLEESGGGLVQAGGSLRLTCAATGRIYFYGMGRYRQAPGNERELVATITSVSNTYYADSVKGRFTKSRDNAKNTVYLVMNSLKPEETAVYYCAAVTRGNWVYYWGQRTQVTVSS | high polyreactivity
QVQLEESGGGLVQAGGSLRLTCAGSGSIFYVYPMGWYRPAPGKERELVAAIYSGASTYYADSVKGRFTISRDNAKNTVYLQKNSLKPEDTAVYYCAAYVFFQTYFSYYVEGDFWGQGTQVTVSS | low polyreactivity
